Assay results as given in patent publication US20170306005A1 (NASCIENT, published 2017).
Residue numbers refer to the chain shown, from its start.

Legend:
Assay in all cases: SPR, captured purified IgG4, 37 C
[1] = molecular target: T1, dog tenascin-C rCD4-His-FBG (rat; dog, UniProt P05540 207-392, limits assumed)
T1 construct: domain: domains 3 and 4; C-terminal FBG fusion; also called Dog TNC; not shown: 6His tag
T1 sequence (chain (part 1 of 2)): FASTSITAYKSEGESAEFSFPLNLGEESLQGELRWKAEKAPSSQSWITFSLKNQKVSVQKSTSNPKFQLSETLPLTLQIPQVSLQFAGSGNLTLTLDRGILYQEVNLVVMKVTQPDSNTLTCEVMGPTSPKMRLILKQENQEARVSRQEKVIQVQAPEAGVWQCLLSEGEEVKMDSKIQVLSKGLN
T1 sequence (chain (part 2 of 2)): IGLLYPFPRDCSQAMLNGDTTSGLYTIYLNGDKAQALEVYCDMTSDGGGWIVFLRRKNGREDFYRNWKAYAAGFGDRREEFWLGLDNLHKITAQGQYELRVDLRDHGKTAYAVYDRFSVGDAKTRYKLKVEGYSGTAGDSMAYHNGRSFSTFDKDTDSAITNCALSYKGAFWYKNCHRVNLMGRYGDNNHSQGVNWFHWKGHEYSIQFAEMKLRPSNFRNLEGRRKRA

[2] = molecular target: T2, rat tenascin-C rCd4-His-FBG (rat, UniProt P05540 207-392, limits assumed)
T2 construct: domain: domains 3 and 4; C-terminal FBG fusion; also called Rat TNC; rat TNC rCD4-His-FBG; not shown: 6His tag
T2 sequence (chain (part 1 of 2)): T1 sequence (chain (part 1 of 2))
T2 sequence (chain (part 2 of 2)): T1 sequence (chain (part 2 of 2)) with L29I, A34T, A72T, H89S, R104Q, K108E, T109S, T124S, A142N, F152Y

[3] = molecular target: T3, mouse tenascin-C rCd4-His-FBG (rat; mouse, UniProt P05540 207-392, limits assumed)
T3 construct: domain: domains 3 and 4; C-terminal FBG fusion; biotinylated in the ELISA screen; also called Mu TNC; mouse TNC rCd4-His-FBG; not shown: 6His tag
T3 sequence (chain (part 1 of 2)): T1 sequence (chain (part 1 of 2))
T3 sequence (chain (part 2 of 2)): T1 sequence (chain (part 2 of 2)) with L29I, A34T, H89S, R104Q, K108E, T109S, T124S, A142N, F152Y

B1: 165_13_C3 human IgG4 (antibody, V domains shown)
VH: QVQLVESGGGLVQPGRSLRLSCAASGFTFDDYAMHWVRQAPGKGLEWVSGISGSGGSTYYADSVKGRFTISRDNAKNSLYLQMNSLRAEDTALYYCAKSYQSDEDAFDIWGQGTMVTVSS
VL: DIQMTQSPASLPTPVGDRVTITCRASQYIQGFLNWYQQKPGKAPKLLIYDASNLETGVPSRFSGSGSGTDFTLTISSLQPEDFATYYCQQSYSTPQTFGQGTKVDIKR
notes: also called IgG4 C3; C3 IgG4 MAb
- Kd [1]: 1.8 nM
- koff [1]: 0.0108 s⁻¹
- kon [1]: 5.97e+06 M⁻¹ s⁻¹
- Kd [2]: 1.22 nM
- koff [2]: 0.00473 s⁻¹
- kon [2]: 3.89e+06 M⁻¹ s⁻¹
- Kd [3]: 0.46 nM
- koff [3]: 0.000445 s⁻¹
- kon [3]: 972000 M⁻¹ s⁻¹
